# In US8227212B2, “Cell that expresses a sulfatase and a formylglycine generating enzyme” (Shire Human Genetic Therapies, Inc., priority 2003, dated 2012):
# B1: FGE (Bos taurus) (protein)
# chain: GEEAGPEAGAPSLVGSCGCGNPQRPGAQGSSAAAHRYSREANAPGSVPGGRPSPPTKMVPIPAGVFTMGTDDPQIKQDGEAPARRVAIDAFYMDAYEVSNAEFEKFVNSTGYLTEAEKFGDSFVFEGMLSEQVKSDIQQAVAAAPWWLPVKGANWRHPEGPDSTVLHRPDHPVLHVSWNDAVAYCTWAGKRLPTEAEWEYSCRGGLQNRLFPWGNKLQPKGQHYANIWQGEFPVTNTGEDGFRGTAPVDAFPPNGYGLYNIVGNAWEWTSDWWTVHHSAEETINPKGPPSGKDRVKKGGSYMCHKSYCYRYRCAARSQNTPDSSASNLGFRCAADHLPTTG
# notes: the soluble fraction (reticuloplasm) of bovine testis microsomes served as the starting material; from tissue; host or cells: bovine testis rough microsomes, reticuloplasm
# Substrate: CSCC[C@H](NC(C)=O)C(=O)N[C@H](C(=O)N[C@@H](CC(=O)O)C(=O)N[C@@H](Cc1ccccc1)C(=O)N[C@@H](Cc1ccc(O)cc1)C(=O)N[C@H](C(=O)N1CCC[C@H]1C(=O)N[C@H](C(=O)N[C@@H](CO)C(=O)N[C@@H](CC(C)C)C(=O)N[C@@H](CS)C(=O)N[C@H](C(=O)N1CCC[C@H]1C(=O)N[C@@H](CO)C(=O)N[C@@H](CCCNC(=N)N)C(=O)N[C@@H](C)C(=O)N[C@@H](C)C(=O)N[C@@H](CC(C)C)C(=O)N[C@@H](CC(C)C)C(=O)N[C@H](C(=O)NCC(=O)N[C@@H](CCCNC(=N)N)C(=O)N[C@@H](CO)C(N)=O)[C@@H](C)O)[C@@H](C)O)C(C)C)C(C)C)[C@@H](C)O
# Test: In vitro assay for FGE with peptide P23 as substrate (MALDI-TOF)
# Type: biochemical, bovine
# Conditions: other: standard conditions; pH 9.0; 37.0 °C
# Description: For monitoring the activity of FGE, the N-acetylated and C-amidated 23mer peptide P23 ([…]) (SEQ ID NO:33) was used as substrate. The conversion of the Cysteine residue in position 11 to FGly was monitored by MALDI-TOF mass spectrometry. A 6 μM stock solution of P23 in 30% acetonitrile and 0.1% trifluoroacetic acid (TFA) was prepared. Under standard conditions 6 pmol of P23 were incubated at 37° C. with up to 10 μl enzyme in a final volume of 30 μl 50 mM Tris/HCl, pH 9.0, containing 67 mM NaCl, 15 μM CaCl2, 2 mM DTT, and 0.33 mg/ml bovine serum albumin. To stop the enzyme reaction 1.5 μl 10% TFA were added. […] Activity (pmol product/h) was calculated on the basis of the peak height of the product divided by the sum of the peak heights of P23 and the product.
# We had developed an assay for determining FGE activity in microsome extracts using in vitro synthesized [^35S] […] The quantitation of the product included tryptic digestion, separation of the peptides by RP-HPLC and identification and quantitation of the [^35S]-labeled FGly containing tryptic peptide by a combination of chemical derivatization to hydrazones, RP-HPLC separation and liquid scintillation counting (Fey et al., J. Biol. Chem., 2001, 276:47021-47028). […] The cysteine and the FGly containing forms of P23 could be identified and quantified by matrix-assisted laser desorption/ionisation time of flight (MALDI-TOF) mass spectrometry. […]
protein,measurement,value
B1,Km,0.013 µM
